One test addresses OSM-3^SNAP (C. elegans) (UniProt P46873). The experiment in a line: single-molecule colocalisation of differentially labelled proteins.
Test [1] addresses OSM-3G444E^Halo (C. elegans) (UniProt P46873). Described as above.

With “QCC with GFP-tagged IFT-52(OSM-6), G5EDF6 1-472; Q0G838 1-471; G5ED37 1-820; Q8I7G4 1-656”, the colocalisation efficiency with OSM-3^SNAP (C. elegans) turned out to be 81%; in test [1] it was 85%.

These data come from paper PMC5967604.
